# Results from patent US20060035265A1.
# Experiments:
# [1] = molecular target: FLAG-Zwt fusion protein; test: scintillation counting of antibody-coated beads after mixing with 35S-labelled transcription/translation mix
# [2] = molecular target: FLAG-ZIgA fusion protein; test: as above
# [3] = molecular target: FLAG-Zwt fusion protein; test: scintillation counting of beads after mixing with 35S-labelled transcription/translation mix; negative control without antibody
# [4] = molecular target: FLAG-ZIgA fusion protein; test: as above
Substance,Signal (cpm) [1] [cpm],Signal (cpm) [2] [cpm],Signal (cpm) [3] [cpm],Signal (cpm) [4] [cpm]
biotinylated anti-FLAG BioM5 monoclonal antibody (Sigma prod no. F-2922),35000,43700,,
streptavidin on native streptavidin (SA) beads (M-280-SA Dynabeads) (from UniProt P22629 37-163),,,4860,5960
